What was measured:
[1] = target: T1, mouse STIM1 at the plasma membrane of mouse spleen B and T cells (mouse, UniProt P70302 23-685); assay: direct flow cytometry with PE coupled B-M4 on spleen B and T cells, n=4
T1 construct: whole, on cells; also called mSTIM1 (mice B and T cells)

Peptide 2A = target: T2, Peptide 2A (biotinylated in the ELISA of Figure 3 A (site not given)); assay: ELISA, DO492 - DO Blanc
T2 construct: also called STIM1 peptide 2A; aa 62 to aa 95
Description: (§1) FIG. 3 illustrated the validation by Elisa of the monoclonal anti-STIM1 antibody clone B-M4. […] Anti-STIM1 mAb clone B-M4 mAb (10 μg/ml) was diluted to 1/10 and antigens STIM1 biotinylated peptides used at concentrations of 50 ng/well for peptides 1A and 1B and 100 ng/well for peptide 2A and 10 ng/well for peptide 2B. Panel B: Specificity of the B-M4 antibody for STIM1 is confirmed by ELISA using the peptide 2B and a recombinant STIM1 EF/SAM peptide (1 μg/mL). B-M4 mAb used at 100 μg/mL diluted to 1/10. Panel C: Specificity for the B-M4 antibody for the peptide 2B over the other peptides (1A, 1B, 2A, 2B, C2, C3, C4, C5, C6, C7 and C8). Peptides are used at a concentration of 1 μg/mL. Histograms represents mean optical density measured using an Elisa approach.

Peptide 1B = target: T3, Peptide 1B (biotinylated in the ELISA of Figure 3 A (site not given)); assay: ELISA, DO492 - DO Blanc
T3 construct: also called STIM1 peptide 1B; aa 169 to aa 197
Description: as §1

[2] = target: T4, recombinant STIM1 EF/SAM peptide (STIM1 aa 58-201) (human, UniProt Q13586 58-201); assay: ELISA on recombinant STIM1 EF-SAM peptide (aa 58-201) at 1 µg/mL, B-M4 titrated
T4 construct: also called soluble recombinant protein corresponding to the STIM1 EF-Hand domain
Description: as §1

[3] = target: T5, STIM1 peptide 2B (amino acids 97-127 of STIM1) (human, biotinylated in the ELISA of FIG. 3 panel A (position not given)); assay: ELISA on Peptide 2B (aa 97-127), B-M4 titrated
T5 construct: One of the two immunization peptides
Description: as §1

[4] = target: T4, recombinant STIM1 EF/SAM peptide (STIM1 …); assay: Octet, EF-SAM peptide at 300, 200 and 133 nM, 1 to 1 fitting model; column kdis, same value in all three rows [table]
Description: (§2) FIG. 9 represents the determination of the anti-STIM1 mAb clone B-M4 affinity. […] High affinity interaction is characterized by a low K, a fast recognizing (high kon) and a stable formation of complexes (low kdis). kdis: dissociation rate constant. kon: complex formation rate.
(§3) Affinity constants (Kon, Kdis) were calculated.

[5] = target: T4, recombinant STIM1 EF/SAM peptide (STIM1 …); assay: Octet (BLI), 1 to 1 fitting model, EF-SAM peptide at 300, 200 and 133 nM
Description: as §3

Peptide 1A = target: T6, Peptide 1A (biotinylated in the ELISA of Figure 3 A (site not given)); assay: ELISA, DO492 - DO Blanc and DO492 - DO630
T6 construct: also called STIM1 peptide 1A; aa 128 to aa 168
Description: as §1

[6] = target: T4, recombinant STIM1 EF/SAM peptide (STIM1 …); assay: Octet, EF-SAM peptide at 300, 200 and 133 nM, 1 to 1 fitting model; same value in all three rows [table]
Description: as §2, §3

T4 sequence (Q13586 58-201): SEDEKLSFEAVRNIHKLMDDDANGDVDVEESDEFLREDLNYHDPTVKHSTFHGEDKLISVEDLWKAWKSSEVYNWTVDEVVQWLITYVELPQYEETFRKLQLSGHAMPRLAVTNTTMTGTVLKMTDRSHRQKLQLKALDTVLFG
T6 sequence (peptide, as listed by the source): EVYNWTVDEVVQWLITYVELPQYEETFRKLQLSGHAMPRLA
T3 sequence (peptide, as listed by the source): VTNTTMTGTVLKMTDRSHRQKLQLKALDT
T2 sequence (peptide, as listed by the source): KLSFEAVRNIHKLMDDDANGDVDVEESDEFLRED
T1 sequence (P70302 23-685): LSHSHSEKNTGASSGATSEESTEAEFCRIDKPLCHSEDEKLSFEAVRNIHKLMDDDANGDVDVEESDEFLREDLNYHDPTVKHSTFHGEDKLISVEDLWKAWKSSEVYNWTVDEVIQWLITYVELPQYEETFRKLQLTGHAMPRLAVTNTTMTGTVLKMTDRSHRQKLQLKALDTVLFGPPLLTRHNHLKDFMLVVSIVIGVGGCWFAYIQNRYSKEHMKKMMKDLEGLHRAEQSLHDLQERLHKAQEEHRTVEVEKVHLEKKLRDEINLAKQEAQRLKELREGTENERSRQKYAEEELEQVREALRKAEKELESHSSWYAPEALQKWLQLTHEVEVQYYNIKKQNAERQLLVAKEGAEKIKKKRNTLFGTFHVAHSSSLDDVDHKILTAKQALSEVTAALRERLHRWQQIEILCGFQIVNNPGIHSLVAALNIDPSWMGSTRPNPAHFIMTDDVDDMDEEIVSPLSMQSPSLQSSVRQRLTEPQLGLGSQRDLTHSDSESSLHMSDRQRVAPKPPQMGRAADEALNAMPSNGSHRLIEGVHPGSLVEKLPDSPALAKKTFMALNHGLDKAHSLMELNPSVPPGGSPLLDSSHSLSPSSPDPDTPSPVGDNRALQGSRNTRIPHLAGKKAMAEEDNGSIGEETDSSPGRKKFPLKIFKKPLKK
T5 sequence (peptide, as listed by the source): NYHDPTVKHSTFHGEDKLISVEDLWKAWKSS

binding result [1]: binds
binding result (Peptide 2A): no binding
binding result (Peptide 1B): no binding
EC50 (read off the curve) [2]: ~0.07 µg/mL
EC50 (read off the curve) [3]: ~0.02 µg/mL
koff [4]: 0.000369 s⁻¹
Kd [5]: 37 nM
binding result (Peptide 1A): no binding
kon [6]: 9960 M⁻¹ s⁻¹
B1: monoclonal anti-STIM1 antibody clone B-M4 (antibody, V domains shown)
VH: EVKLVESGGGLVQPGGSLKLSCAASGFTFSRYSMSWVRQTPEKRLEWVAHIRNGGGSTYYPDTVKGRFTISRDNAKNTLYLQMSSLKSEDTAMYYCARPPYGNYEGYFDVWGAGTTVTVSS
VL: DIVMSQSPSSLAVSAGEKVTMSCKSSQSLLNSRTRKNYLAWYQQKPGQSPKLLIYWASTRESGVPDRFTGSGSGTDFTLTISSVQAEDLAVYYCKQSYNLYTFGGGTKLEIK
notes: In the direct flow cytometry assays it was coupled to phycoerythrin (PE); also called B-M4 mAb; anti-STIM1 mAb clone B-M4

Reference: patent publication US20230058212A1 (UNIVERSIT DE BRETAGNE OCCIDENTALE UBO, published 2023)
